Assay results as given in IntAct's records for PubMed 23125415.

B1: Fractalkine (Homo sapiens), P78423 (parent)
chain: MAPISLSWLLRLATFCHLTVLLAGQHHGVTKCNITCSKMTSKIPVALLIHYQQNQASCGKRAIILETRQHRLFCADPKEQWVKDAMQHLDRQAAALTRNGGTFEKQIGEVKPRTTPAAGGMDESVVLEPEATGESSSLEPTPSSQEAQRALGTSPELPTGVTGSSGTRLPPTPKAQDGGPVGTELFRVPPVSTAATWQSSAPHQPGPSLWAEAKTSEAPSTQDPSTQASTASSPAPEENAPSEGQRVWGQGQSPRPENSLEREEMGPVPAHTDAFQDWGPGSMAHVSVVPVSSEGTPSREPVASGSWTPKAEEPIHATMDPQRLGVLITPVPDAQAATRRQAVGLLAFLGLLFCLGVAMFTYQSLQGCPRKMAGEMAEGLRYIPRSCGSNSYVLVPV

Variants of: B1
Conditions: with cx3c1_human CX3CR1, P49238
cx3c1_human CX3CR1, P49238, sequence (P49238 whole entry): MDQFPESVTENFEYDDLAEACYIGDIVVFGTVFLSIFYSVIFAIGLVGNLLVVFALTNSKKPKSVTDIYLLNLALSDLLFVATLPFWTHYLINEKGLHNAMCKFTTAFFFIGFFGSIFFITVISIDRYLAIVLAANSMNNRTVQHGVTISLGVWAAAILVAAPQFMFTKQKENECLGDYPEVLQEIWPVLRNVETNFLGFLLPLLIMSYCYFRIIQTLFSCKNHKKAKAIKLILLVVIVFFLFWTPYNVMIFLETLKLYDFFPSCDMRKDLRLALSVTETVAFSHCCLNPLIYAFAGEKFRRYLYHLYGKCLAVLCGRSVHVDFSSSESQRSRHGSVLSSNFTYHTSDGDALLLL

effect of a mutation on the interaction	Variant
with no effect	MAPISLSWLLRLATFCHLTVLLAGQHHGVTKCNITCSKMTSKIPVALLIHYQQNQASCGAAAIILETRQHRLFCADPKEQWVKDAMQHLDRQAAALTRNGGTFEKQIGEVKPRTTPAAGGMDESVVLEPEATGESSSLEPTPSSQEAQRALGTSPELPTGVTGSSGTRLPPTPKAQDGGPVGTELFRVPPVSTAATWQSSAPHQPGPSLWAEAKTSEAPSTQDPSTQASTASSPAPEENAPSEGQRVWGQGQSPRPENSLEREEMGPVPAHTDAFQDWGPGSMAHVSVVPVSSEGTPSREPVASGSWTPKAEEPIHATMDPQRLGVLITPVPDAQAATRRQAVGLLAFLGLLFCLGVAMFTYQSLQGCPRKMAGEMAEGLRYIPRSCGSNSYVLVPV [K60A;R61A]
disrupting interaction strength	MAPISLSWLLRLATFCHLTVLLAGQHHGVTKCNITCSKMTSKIPVALLIHYQQNQASCGKRAIILETRQHALFCADPKEQWVKDAMQHLDRQAAALTRNGGTFEKQIGEVKPRTTPAAGGMDESVVLEPEATGESSSLEPTPSSQEAQRALGTSPELPTGVTGSSGTRLPPTPKAQDGGPVGTELFRVPPVSTAATWQSSAPHQPGPSLWAEAKTSEAPSTQDPSTQASTASSPAPEENAPSEGQRVWGQGQSPRPENSLEREEMGPVPAHTDAFQDWGPGSMAHVSVVPVSSEGTPSREPVASGSWTPKAEEPIHATMDPQRLGVLITPVPDAQAATRRQAVGLLAFLGLLFCLGVAMFTYQSLQGCPRKMAGEMAEGLRYIPRSCGSNSYVLVPV [R71A]
